B1: CADM1-Fc (Fc fusion, human (by the printed RefSeq entry), UniProt Q9BY67-1 45-374, looked up)
chain: QNLFTKDVTVIEGEVATISCQVNKSDDSVIQLLNPNRQTIYFRDFRPLKDSRFQLLNFSSSELKVSLTNVSISDEGRYFCQLYTDPPQESYTTITVLVPPRNLMIDIQKDTAVEGEEIEVNCTAMASKPATTIRWFKGNTELKGKSEVEEWSDMYTVTSQLMLKVHKEDDGVPVICQVEHPAVTGNLQTQRYLEVQYKPQVHIQMTYPLQGLTREGDALELTCEAIGKPQPVMVTWVRVDDEMPQHAVLSGPNLFINNLNKTDNGTYRCEASNIVGKAHSDYMLYVYDPPTTIPPPTTTTTTTTTTTTTILTIITDSRAGEEGSIRAVDH
notes: signal peptide in the construct; CADM1 extracellular domain, NP_055148, 1-374 a.a; Human IgG2-Fc fragment from pFUSE-hIgG2-Fc1; Glycosylated; also called cell adhesion molecule 1 extracellular domain fused with Fc; source: FreeStyle 293-F cells, transiently transfected, purified from the supernatant (Protein G Sepharose); not shown: Fc (human IgG2), C-terminal, kept

Assays:
CADM2-Fc = molecular target: T1, CADM2-Fc (human (by the printed RefSeq entry), UniProt Q8N3J6-1 25-367); test: SPR; SPR imaging (OpenPlex); the 10 IgSF-Fc proteins (7-24 μM) spotted in hexaplicate and immobilised by amine coupling; 2.4 μM CADM1-Fc injected for 4 min; 25°C; PBS with 0.2% BSA and 0.02% Tween20, 50 μL/min; signal of normal human IgG subtracted; settings: both partners purified
T1 construct: signal peptide in the construct; CADM2 extracellular domain, NP_001161146, 1-367 a.a; Human IgG2-Fc fragment from pFUSE-hIgG2-Fc1; source: FreeStyle 293-F cells, transiently transfected, purified from the supernatant (Protein G Sepharose); not shown: Fc (human IgG2), C-terminal, kept
T1 sequence (looked up): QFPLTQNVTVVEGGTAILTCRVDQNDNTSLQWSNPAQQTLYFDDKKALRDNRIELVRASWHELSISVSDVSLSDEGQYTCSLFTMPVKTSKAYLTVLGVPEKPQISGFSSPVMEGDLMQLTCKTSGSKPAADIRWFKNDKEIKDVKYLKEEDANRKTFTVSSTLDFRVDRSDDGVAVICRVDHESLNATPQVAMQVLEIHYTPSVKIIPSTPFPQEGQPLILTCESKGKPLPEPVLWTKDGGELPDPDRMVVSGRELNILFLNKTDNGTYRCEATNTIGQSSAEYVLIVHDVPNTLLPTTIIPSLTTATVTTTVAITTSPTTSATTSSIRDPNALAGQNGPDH

[1] = molecular target: the molecule itself; test: as above
[2] = molecular target: T2, CADM4-Fc (human (by the printed RefSeq entry)); test: as above
T2 sequence (Q8NFZ8 whole entry, looked up): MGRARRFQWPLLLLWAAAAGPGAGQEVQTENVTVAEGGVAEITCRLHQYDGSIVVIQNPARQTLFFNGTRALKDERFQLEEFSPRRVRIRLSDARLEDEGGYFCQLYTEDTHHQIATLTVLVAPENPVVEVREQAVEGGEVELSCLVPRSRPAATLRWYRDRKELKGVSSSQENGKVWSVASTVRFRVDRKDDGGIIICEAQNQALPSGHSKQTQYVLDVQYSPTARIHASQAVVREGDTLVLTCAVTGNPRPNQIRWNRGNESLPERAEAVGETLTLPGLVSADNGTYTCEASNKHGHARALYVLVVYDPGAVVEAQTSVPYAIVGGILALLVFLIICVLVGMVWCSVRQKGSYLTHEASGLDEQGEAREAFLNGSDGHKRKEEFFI

[3] = molecular target: the molecule itself; test: SPR; SPR imaging (OpenPlex); the 10 IgSF-Fc proteins spotted and immobilised by amine coupling; CADM2-Fc, CADM3-Fc or CADM4-Fc injected as analyte; 25°C; PBS with 0.2% BSA and 0.02% Tween20, 50 μL/min
CADM1-Fc = molecular target: B1; test: SPR; SPR imaging (OpenPlex); the 10 IgSF-Fc proteins (7-24 μM) spotted in hexaplicate and immobilised by amine coupling; 2.4 μM CADM1-Fc injected for 4 min; 25°C; PBS with 0.2% BSA and 0.02% Tween20, 50 μL/min; signal of normal human IgG subtracted; settings: both partners purified

B1 gave a Kd (CADM2-Fc) of 86.8 nM, a koff (CADM2-Fc) of 0.0064 s⁻¹ and a kon (CADM2-Fc) of 74000 M⁻¹ s⁻¹. The Kd [1] was 114 nM, the koff [1] was 0.0073 s⁻¹ and the kon [1] was 64000 M⁻¹ s⁻¹. It also gave a Kd [2] of 193 nM, a koff [2] of 0.019 s⁻¹ and a kon [2] of 99000 M⁻¹ s⁻¹.

B2: CADM3-Fc (Fc fusion, human (by the printed RefSeq entry), UniProt Q8N126-1 25-330, looked up)
chain: NLSQDDSQPWTSDETVVAGGTVVLKCQVKDHEDSSLQWSNPAQQTLYFGEKRALRDNRIQLVTSTPHELSISISNVALADEGEYTCSIFTMPVRTAKSLVTVLGIPQKPIITGYKSSLREKDTATLNCQSSGSKPAARLTWRKGDQELHGEPTRIQEDPNGKTFTVSSSVTFQVTREDDGASIVCSVNHESLKGADRSTSQRIEVLYTPTAMIRPDPPHPREGQKLLLHCEGRGNPVPQQYLWEKEGSVPPLKMTQESALIFPFLNKSDSGTYGCTATSNMGSYKAYYTLNVNDPSPVPSSSSTYH
notes: signal peptide in the construct; CADM3 extracellular domain, NP_001120645, 1-330 a.a; Human IgG2-Fc fragment from pFUSE-hIgG2-Fc1; source: FreeStyle 293-F cells, transiently transfected, purified from the supernatant (Protein G Sepharose); not shown: Fc (human IgG2), C-terminal, kept
For B2, the binding result [3] was “binds”, the Kd (CADM1-Fc) was 80.1 nM and the koff (CADM1-Fc) was 0.007 s⁻¹. For the same binder, the kon (CADM1-Fc) was 84000 M⁻¹ s⁻¹.

Reference: paper PMC6090299, “Quantitative Analysis of Interaction Between CADM1 and Its Binding Cell-Surface Proteins Using Surface Plasmon Resonance Imaging” (Frontiers in Cell and Developmental Biology, 2018)
